Here are results for one molecule from doi:10.1101/293811 (bioRxiv, 2018).

The target in the assay is alanine or glycine:cation symporter (AgcS) from Methanococcus maripaludis (Methanococcus maripaludis, UniProt Q6LX42). The assay can be described thus: crystal structure.
Chain of alanine or glycine:cation symporter (AgcS) from Methanococcus maripaludis (Q6LX42 whole entry): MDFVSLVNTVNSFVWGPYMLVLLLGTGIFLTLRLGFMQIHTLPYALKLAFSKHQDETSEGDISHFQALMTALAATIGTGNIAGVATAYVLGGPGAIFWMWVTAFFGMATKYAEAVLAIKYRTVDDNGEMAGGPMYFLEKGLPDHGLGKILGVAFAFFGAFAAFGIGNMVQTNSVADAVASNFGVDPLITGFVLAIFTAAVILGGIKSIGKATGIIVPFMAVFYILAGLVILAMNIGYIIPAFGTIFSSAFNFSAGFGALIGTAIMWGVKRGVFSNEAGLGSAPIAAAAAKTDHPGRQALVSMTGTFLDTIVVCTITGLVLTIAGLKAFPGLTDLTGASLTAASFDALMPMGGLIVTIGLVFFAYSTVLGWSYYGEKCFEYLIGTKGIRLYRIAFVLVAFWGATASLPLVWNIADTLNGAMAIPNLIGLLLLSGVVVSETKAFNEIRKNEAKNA

B1: 7B4 Fab fragment (Fab, V domains shown)
VH: EVKLEESGGGLVQPGGSMKLSCAASGFTSSDFAMDWVRQSPEAGLEWVAEIAASERHYAESVKGRFTISRDDSKSSVYLQMNSLRAEDSGLYYCTRTAGACGQWGTGTTVTVSS
VL: DIAMTQSPASLSASVGETVTITCRTSENIASALAWYQQKQGKSPQLLVMNAKTLAAGVPSRFSGSGSGTAFSLKINSLQPEDFGSYSCQHAAGWLLTFGGGTKLEIK
For B1, the binding result is “binds”.
